One experiment deals with HNP-(R14,24orn) (human). In words: AUC.
Experiment [1] deals with human neutrophil peptide-1 (HNP-1) (human). The experiment is described as follows: AUC.

Take HNP-(R14,24orn) (peptide): the population of oligomer with HNP-(R14,24orn) (human) worked out at 8%.
The substance human neutrophil peptide-1 (HNP-1) gave a population of oligomer in experiment [1] of 8%.
